# In the DeepSol protein solubility set:
# Assay: soluble on expression in E. coli; label from the status in PepcDB or PDB records
row,Sequence,soluble on expression in E. coli
1,MKTLLQTTLKLLVASSLVLGMTASTLMAETKSKFQVAWTIYVGWMPWDYAAQSGILDKWAKKYGIEIEMVQVNDYVESINQYTAGKFDGCVMTNMDALTIPAAGGVNSTALIAGDFSNGNDGIILKGKKRLSEIKGQKVNLMELSVSHYLLARGLESVGLSERDVSVVNTSDADIVAAYSTKEVSALVTWNPQLSEVKSMKGANLVFDSSQIPGEIIDLMVLNTQTLKENPNLGKALTGAWFEVLALMKKGDLTALSAMAKASGTDLAGYKKQLESTKMFYEASEAVKFITSAELPETMKKVSEFSFEHGILGEGASSAAFVGMEFPGGKSFGDPKNLKLRFIDTYVKMAAEGKL,not soluble
2,MEVTDVRLRRVNTDGRMRAIASITLDHEFVVHDIRVIDGNNGLFVAMPSKRTPDGEFRDITHPINSSTRGKIQDAVLNEYHRLGDTEALEFEEAGAS,soluble
3,SLKTPGYPDGPIAIYGDNIFLYSEPTAEEAARFDVVINCAREVSNPFEINKATRRPMSIAEPDTAVSTASFMTAWEFPQGDDSAETPTTPKALQFQEPEYIHIPWDHNTDIAPDLMDLCHVVDDRTKAGKRVLIHCQQGASRSASLIIAYGLFQRPELTVNDAYYAAQAKSQWISPNMKLMYSLQDFQKEVSTKRTAQPSNREG,soluble
4,SNAIFMDYYENRKVMAEAQNIYEKSPMEEQSQDGEVRKQFKALQQINQEIVGWITMDDTQINYPIVQAKDNDYYLFRNYKGEDMRAGSIFMDYRNDVKSQNRNTILYGHRMKDGSMFGSLKKMLDEEFFMSHRKLYYDTLFEGYDLEVFSVYTTTTDFYYIETDFSSDTEYTSFLEKIQEKSLYKTDTTVTAGDQIVTLSTCDYALDPEAGRLVVHAKLVKRQ,soluble
5,TDKPRHRFFDAETEALYARLARALPGYDFALQGWNRDEDTFIVAAYNDRTPGSRYLYDARRDSLHKLADINPAIPEADMAPVRPVSYQSRDGLTIHGYLTLPAGRAPRNLACIVNPHGGPWARDGWGYNPEVQFLANRGFCVLQMNFRGSTGYGRKFWEAGFGQWGLKMQDDITDGVQWLIDQGIADPRRIGIYGGSYGGYATLAGVAFTPDLYAAAVDYVGVSNLFTFMNTIPPYWKPLLAKMQDMVGDPVRDKARLEATSPALHVDRIKTPLFIAQGAKDPRVNKAESDQVVQALRQRGVEVEYMVKDNEGHGFHNDENKFEFYAAMEKFFTEHLK,not soluble
6,SNAMPQQKNFVTMPAQHQNKQPGIESLMNPLPQFEDPNYKGSEKLKGKNVLITGGDSGIGRAVSIAFAKEGANIAIAYLDEEGDANETKQYVEKEGVKCVLLPGDLSDEQHCKDIVQETVRQLGSLNILVNNVAQQYPQQGLEYITAEQLEKTFRINIFSYFHVTKAALSHLKQGDVIINTASIVAYEGNETLIDYSATKGAIVAFTRSLSQSLVQKGIRVNGVAPGPIWTPLIPSSFDEKKVSQFGSNVPMQRPGQPYELAPAYVYLASSDSSYVTGQMIHVNGGVIVNG,soluble
7,MGSDKIHHHHHHMVGIILASHGEFAKGILQSGAMIFGDQENVQAVTLMPSEGPDDVKAKMKDAIASFDNQDEVLFLVDLWGGTPFNQANSLFEEHKDKWAIVAGMNLPMVIEAYGARLSMESAHEIAASIISTAKEGVKVKPEELEPEDAGKASQGSAKQSNTGAPGSFEYVLARIDSRLLHGQVATAWTKAMQPTRIIVVSDAVAKDELRKKLIQQAAPPGVKAHVVPINHMIKLAKDDQHFGGQRAMLLFENPEDVLRVVEGGVPLKTINVGSMAHSTGKVQPNKVLAFNQEDIDTFNKLKQSGLTFDVRKVPNDSKGNMDEIIKKAQDELNKQK,not soluble
8,GAGTSTPTTGNQNMSGNSGSIVQNFYMQQYQNSIDADLGDNVISPEGQGSNTSSSTSSSQSSGLGGWFSSLLNLGTKLLADKKTEETTNIEDRIETTVVGVTIINSQGSVGTTYCYSKPDGRPPSTVSDPVTRLGPTLSRHYTFKVGEWPHSQSHGHAWICPLPGDKLKKMGSFHEVVKAHHLVKNGWDVVVQVNASFAHSGALCVAAVPEYEHTHEKALKWSELEEPAYTYQQLSVFPHQLLNLRTNSSVHLVMPYIGPGPTTNSALHNPWTIVVLILSELTGPGQTVPVTMSVAPIDAMVNGPLPNPEAPIRVVSVPESDSFMSSVPDNSTPLYPKVVVPPRQVPGRFTNFIDVAKQTYSFCSISGKPYFEVTNTSGDEPLFQMDVSLSAAELHGTYVASLSSFFAQYRGSLNFNFIFTGAAATKAKFLVAFVPPHSAAPKTRDEAMACIHAVWDVGLNSAFSFNVPYSSPADFMAVYSAEATVVNVSGWLQVYALTALTSTDIAVNSKGRVLVAVSAGPDFSLRHPVDLPDKQVTNVGEDGEPGETEPRYALSPVDMHVHTDVSFLLDRFFDVETLELSNLTGSPNTHVLNPFGSTAQLAWARLLNTCTYFFSDLELSIQFKFTTTPSSVGEGFVWVKWFPVGAPTKTTDAWQLEGGGNSVRIQQLAVAGMSPTVVFKIAGSRSQACGFSVPYTSMWRVVPVFYNGWGAPTKEKATYNWLPGAHFGSILLTSDAHDKGGCYLRYRFPRASMYCPRPIAPAFTRPADKTRHKFPTNINKQCTNYSLLKLAGDVESNPG,soluble
9,MQTPKPTLELLTCDAAYRENPTALFHQVCGDRPATLLLESADIDSKDDLKSLLLVDSALRITALGDTVTIQALSDNGASLLPLLDTALPAGVENDVLPAGRVLRFPPVSPLLDENARLCSLSVFDAFRLLQGVVNIPTQEREAMFFGGLFAYDLVAGFEALPHLEAGNNCPDYCFYLAETLMVIDHQKKSTRIQASLFTASDREKQRLNARLAYLSQQLTQPAPPLPVTPVPDMRCECNQSDDAFGAVVRQLQKAIRAGEIFQVVPSRRFSLPCPSPLAAYYVLKKSNPSPYMFFMQDNDFTLFGASPESSLKYDAASRQIEIYPIAGTRPRGRRADGTLDRDLDSRIELDMRTDHKELSEHLMLVDLARNDLARICTPGSRYVADLTKVDRYSYVMHLVSRVVGELRHDLDALHAYRACMNMGTLSGAPKVRAMQLIADAEGQRRGSYGGAVGYFTAHGDLDTCIVIRSALVENGIATVQAGAGIVLDSVPQSEADETRNKARAVLRAIATAHHAQETF,soluble
10,MKNIHSIEFYTGSKEELLPDFEKDFPYIASRAELDKYIGGYVPWHWHRTVELFYMESGSIEYDTPGGKILFPAGSGGMINPNVLHMTKAISQREKNIQLLHIFDVSLLAGEQGSRIEQKYIAPVITAPQIEVIPLFPGNAEEERILKLLAASFRLSSDEFGYEIKLREALTEIWLMLFELSCSMREKKGEHNKSNDKIKLMMIYIHEHYREKISILELAAAAYLSERECYRVFHDCLHMTPVEYITTYRLQIACQMLAKGQEPITVISHECGLGSSSYFGKVFREYAYCSPTEYRKKWQNSDM,soluble
11,MSKIKRVLISVSDKTGIIEFAKELSKYNIEILSTGGTSKTLKDAGINVIDVSEHTQFPEIMNGRVKTLHPLIHGGILADRDNPEHLDAMLKNHIGQIDMVVVNLYPFVNTVKSGADFDTCIENIDIGGPSMVRSCAKNHKHTTIVTNPSQYDLVIKEMAENDGKTTLATRREFAKEAFAHTAEYDSHIANWFSKELDEEYPEKLFSVGTLKQVLRYGENPHQKAAVYSTDADCVSITNARQLQGKELSYNNLNDADGAFEMVCEYSEPSCAIIKHANPCGIASGKNAFEAWTKALACDPISAFGGIVAFNCEVDKEFAESLGKMFLEVIIAPSYTQEALDILAAKKNLRVLETGKVFDTKSSRMISKNIHGGILSQSYDNGGVDINDCKVVTDRAPTDKEWADLMFAWKAVKYVKSNAIVYARDTQTVGIGAGQMSRVDSARIGAEKAQAHQGAKGSAVASDAFFPFADGLEECIKAGATAVIQPGGSKNDQEVIDAANKAGITMVFTNMRHFRH,not soluble
12,MRVLITGGNRGLGLQLVKVFHENGHIIYPLVRTEVAVTQLKQMFSCRCFPILADLAADESTEQIKKQLEEYTEYMDLVINNAGITGKETEVLHTNSEELTDLFNIHCLGVIRAVKGTYMALAKSDHPRIINVSSRLGSLHKMANKEFPQGHFSYSYRIAKAAQNMLTLCLQQEFENKGISVTAIHPGKLKTEIGAFDANMTPAEGTKNIYDWVIDSNEDLSGQFIEPGVGEIKW,not soluble
